Experimental data reported in doi:10.1101/2023.03.09.531992 (bioRxiv, 2023).

Assays:
[1] = biological target: T1, S. pombe αWD40 domain (N-terminal WD40 domain of α-COPI), wild type (S. pombe, UniProt Q96WV5 1-327); assay: NMR titration
T1 sequence: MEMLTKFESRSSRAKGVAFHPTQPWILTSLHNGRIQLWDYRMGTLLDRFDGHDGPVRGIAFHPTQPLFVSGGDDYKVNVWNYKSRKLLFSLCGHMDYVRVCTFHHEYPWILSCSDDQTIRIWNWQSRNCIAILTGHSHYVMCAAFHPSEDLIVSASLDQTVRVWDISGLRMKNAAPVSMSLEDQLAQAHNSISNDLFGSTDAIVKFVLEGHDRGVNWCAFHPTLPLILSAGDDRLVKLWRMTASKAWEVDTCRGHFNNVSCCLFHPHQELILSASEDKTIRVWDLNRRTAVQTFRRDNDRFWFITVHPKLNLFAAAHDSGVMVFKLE

[2] = biological target: T2, S. cerevisiae β’WD40 domain (N-terminal WD40 domain of β’-COPI), wild type (S. cerevisiae, UniProt P41811 1-300); assay: crystal structure
T2 sequence: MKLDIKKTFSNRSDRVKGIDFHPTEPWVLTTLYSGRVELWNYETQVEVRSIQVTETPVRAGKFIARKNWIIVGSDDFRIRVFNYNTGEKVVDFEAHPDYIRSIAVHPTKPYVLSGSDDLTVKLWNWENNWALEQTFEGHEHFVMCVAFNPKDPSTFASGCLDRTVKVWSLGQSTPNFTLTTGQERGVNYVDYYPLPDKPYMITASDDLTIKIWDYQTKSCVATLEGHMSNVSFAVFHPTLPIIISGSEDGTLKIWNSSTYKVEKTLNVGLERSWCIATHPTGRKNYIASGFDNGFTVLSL

Binder | binding result [1] | binding result [2]
15N-labeled wild-type SARS-CoV-2 S C-terminal tail 21-mer peptide (NMR) (15N isotope label) peptide: not shown | binds | –
GVKLHYT [wild-type SARS-CoV-2 S tail heptapeptide (residues 1267-1273), as co-crystallised] | – | binds
